According to patent US20160046944, “APTAMER TO IL-17 AND USE THEREOF” (THE UNIVERSITY OF TOKYO, published 2016):
Changes are numbered by the printed parent chain.

Tests used:
Conditions in all cases: chain copies: 2
IL-17 (IL-17A) [1] = molecular target: T1, IL-17 (IL-17A) (Homo sapiens, UniProt Q16552 Q16552:24-155); experiment: cell_activity; IL-6 release, NIH3T3
T1 sequence: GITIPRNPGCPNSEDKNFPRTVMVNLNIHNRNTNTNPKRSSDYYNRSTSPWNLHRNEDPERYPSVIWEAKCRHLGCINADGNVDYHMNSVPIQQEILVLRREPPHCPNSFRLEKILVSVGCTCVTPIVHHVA
Procedure: (§1) First, human IL-17 and the aptamer produced in Example 1-1 were pre-incubated at 37° C. for 30 min, and added to NIH3T3 cell (ATCC, CRL1658) together with mouse TNFα (2 ng/mL). Then, after incubation for 24 hr, the culture supernatant was collected, and the amount of IL-6 was measured by BD Cytometric Bead Array (BD Biosciences). The IL-17 inhibitory action of each aptamer was determined from the amount of IL-6. For comparison with the aptamer of the present invention, a conventionally-known aptamer (aptamer No. 50) against IL-17 was used.

IL-17 [2] = molecular target: T2, IL-17 (Homo sapiens, UniProt Q16552 Q16552:24-155); experiment: cell_activity; NIH3T3 IL-6 release
T2 sequence: T1 sequence
Procedure: as §1

IL-17 [3] = molecular target: T2, IL-17; experiment: SPR; IL-17R-Fc on chip
Procedure: Whether aptamers shown by aptamer Nos. 1-49 inhibit the binding of IL-17 and IL-17 receptor was evaluated by the surface plasmon resonance method.
For the measurement, BIAcore2000 manufactured by BIAcore was used. […] As an analyte, IL-17 (100 or 150 nM) and an aptamer (50 or 100 nM) shown by aptamer No. 1-49 were mixed, maintained for 15 min and after that the mixture was flown.

IL-17 (IL-17A) [4] = molecular target: T1, IL-17 (IL-17A); experiment: cell_activity; IL-6 release, NIH3T3, 37 C
Procedure: as §1

IL-17 [5] = molecular target: T2, IL-17; experiment: cell_activity; NIH3T3 IL-6 release; remark: listed apart in the source
Procedure: (§2) First, human IL-17 and the aptamer produced in Example 1-2 were pre-incubated at 37° C. for 30 min, and added to NIH3T3 cell (ATCC, CRL1658) together with mouse TNFα (2 ng/mL). Then, after incubation for 24 hr, the culture supernatant was collected, and the production amount of IL-6 was measured by ELISA method described below. The IL-17 inhibitory action of each aptamer was determined from the production amount of IL-6. For comparison with the aptamer of the present invention, a conventionally-known aptamer (aptamer No. 50) against IL-17 was used.
ELISA method for verifying IL-17 inhibitory action of aptamer: A microtiter plate for ELISA was coated with rat anti-mouse IL-6 antibody (BD Biosciences, 2 μg/mL; 100 μL/well) diluted with PBS, and incubated at 4° C. overnight. The next day, the microtiter plate was washed 3 times with PBS/0.05% Tween 20, and applied blocking with PBS/1% BSA (200 μL/well) at room temperature for 2 hr. Then, the plate was washed 3 times with PBS/0.05% Tween 20. Recombinant mouse IL-6 (BD Biosciences; 100 μL/well) serially diluted with PBS/1% BSA/0.05% Tween 20 or culture supernatants (100 μL/well) were added to the plate. After incubation at room temperature for 2 hr, the plate was washed 3 times with PBS/0.05% Tween 20. Then, 100 μL/well of biotin conjugated rat anti-mouse IL-6 antibody (BD Biosciences) was added to the plate at final dilution of 1/500, and the mixture was reacted at room temperature for 1 hr. After washing 3 times with PBS/0.05% Tween 20, 100 μL/well of alkaline phosphatase conjugated streptavidin was added at final dilution of 1/1000. After 30 min at room temperature, the plate was again washed 4 times with PBS/0.05% Tween 20, and a substrate (1-Step PNPP; Thermo Fisher Scientific Inc; 100 μL/well) was added. After 15 min, aqueous sodium hydroxide solution (2N: 50 μL/well) was added to stop the reaction, and the plate was read on a microtiter reader (Bio-Rad) by using a 405 nm filter.

IL-17 [6] = molecular target: T2, IL-17; experiment: cell_activity; NIH3T3 IL-6 release, human IL-17 + mouse TNFa, 37 C; 8.63 nM in Table 6
Procedure: as §2
ELISA method for verifying IL-17 inhibitory action of aptamer: A microtiter plate for ELISA was coated with rat anti-mouse IL-6 antibody (BD Biosciences, 2 μg/mL; 100 μL/well) diluted with PBS, and incubated at 4° C. overnight. The next day, the microtiter plate was washed 3 times with PBS/0.05% Tween 20, and applied blocking with PBS/1% BSA (200 μL/well) at room temperature for 2 hr. Then, the plate was washed 3 times with PBS/0.05% Tween 20. Recombinant mouse IL-6 (BD Biosciences; 100 μL/well) serially diluted with PBS/1% BSA/0.05% Tween 20 or culture supernatants (100 μL/well) were added to the plate. […] After 15 min, aqueous sodium hydroxide solution (2N: 50 μL/well) was added to stop the reaction, and the plate was read on a microtiter reader (Bio-Rad) by using a 405 nm filter.

B1: aptamer No. 27 (mixed)
mixed: GGGUAGCCGGAGGAGTCAGTAAUCGGTACCC
modifications: g(M)g(M)g(M)u(M)Ag(S)c(M)c(M)Gg(M)Agg(M)a(M)gTc(F)agTa(M)Au(M)c(M)g(M)g(M)Ta(M)c(M)c(M)c(M)
With B1 the IC50 (IL-17 (IL-17A) [1]) was 2.45 nM.

B2: aptamer No. 20 (mixed)
mixed: B1 mixed with T27U
modifications: 2'-OMe (M), 2'-F (F), PS (S) as marked; uppercase DNA [2'-OMe: 1-4,7,8,10,13,14,21,23-26,28; 2'-F: 17,18,27; PS: 6]
For B2, the IC50 (IL-17 [2]) was 0.37 nM and the binding signal (IL-17 [3]) was 18.5 % IL-17/IL-17R binding remaining.

B3: aptamer No. 26 (mixed)
mixed: B1 mixed
modifications: (M)=2'-OMe,(F)=2'-F,(S)=PS, lowercase RNA, uppercase DNA: g(M)g(M)g(M)u(M)Ag(S)c(M)c(M)Gg(M)Agg(M)a(M)gTc(F)agTaau(M)c(M)g(M)g(M)Ta(M)c(M)c(M)c(M)
B3 was tested, and the IC50 (IL-17 (IL-17A) [4]) was 0.78 nM.

B4: aptamer No. 88 (mixed)
RNA: GGGUAGCCGGAGGAGUCAGUGAUCGGUACCC
modifications: 2'-OMe (M), 2'-F (F), PS (S) as marked; uppercase DNA [2'-OMe: 1-5,7,8,10,11,13,14,17,22-26,28-31; 2'-F: 16,18,20,27; PS: 6,15,19; DNA: 9]
B4 gave an IC50 (IL-17 [5]) of 2.88 nM.

B5: aptamer No. 45 (mixed)
mixed: B1 mixed with T27U
modifications: g(M)g(M)g(M)u(M)Ag(S)c(M)c(M)Gg(M)agg(M)a(M)gTc(F)agTaau(M)c(M)g(M)g(M)u(F)a(M)CCC
With B5 the IC50 (IL-17 (IL-17A) [1]) was 0.76 nM.

B6: aptamer No. 35 (mixed)
mixed: B1 mixed
modifications: g(M)g(M)g(M)u(M)Agc(M)c(M)Gg(M)Agg(M)a(M)gTc(F)AgTa(M)Au(M)c(M)g(M)g(M)Ta(M)c(M)c(M)c(M)
With B6 the IC50 (IL-17 (IL-17A) [1]) was 2.47 nM.

B7: aptamer No. 71 (mixed)
RNA: B4 RNA with G21A
modifications: 2'-OMe (M), 2'-F (F), PS (S) as marked; uppercase DNA [2'-OMe: 1-5,7,8,10,13,14,17,21-26,28-31; 2'-F: 11,16,18,20,27; PS: 6,15,19]
Work on B7 yielded an IC50 (IL-17 [5]) of 5.54 nM.

B8: aptamer No. 39 (mixed)
mixed: B1 mixed
modifications: g(M)g(M)g(M)u(M)Agc(M)c(M)Gg(M)Agg(M)a(M)gTc(F)AgTaa(M)u(M)c(M)g(M)g(M)Ta(M)c(M)c(M)c(M)
Binder B8 has an IC50 (IL-17 (IL-17A) [1]) of 3.91 nM.

B9: aptamer No. 57 (mixed)
mixed: B1 mixed with T27U
modifications: 2'-OMe (M), 2'-F (F), PS (S) as marked; uppercase DNA [2'-OMe: 1,2,3,4,7,8,10,13,14,19,21,22,23,24,25,26,28; 2'-F: 11,17,18,27; PS: 6,15]
B9 gave an IC50 (IL-17 [5]) of 2.36 nM.

B10: aptamer No. 74 (mixed)
mixed: B1 mixed with T27U
modifications: 2'-OMe (M), 2'-F (F) as marked; uppercase DNA [2'-OMe: 1-5,7,8,10,13,14,21-26,28-31; 2'-F: 11,17,18,27]
With B10 the IC50 (IL-17 [5]) was 1.06 nM.

B11: aptamer No. 30 (mixed)
mixed: B1 mixed
modifications: g(M)g(M)g(M)u(M)Agc(M)c(M)Gg(M)Agg(M)a(M)gTc(F)agTa(M)Au(M)c(M)g(M)g(M)Ta(M)c(M)c(M)c(M)
B11 gave an IC50 (IL-17 (IL-17A) [1]) of 1.49 nM.

B12: aptamer No. 23 (mixed)
mixed: B1 mixed
modifications: 2'-OMe (M), 2'-F (F), PS (S) as marked; uppercase DNA [2'-OMe: 1-4,7,8,10,13,14,23-26,29-31; 2'-F: 17; PS: 6]
B12 was tested, and the IC50 (IL-17 [2]) was 1.34 nM and the binding signal (IL-17 [3]) was 13.4 % IL-17/IL-17R binding remaining.

B13: aptamer No. 61 (mixed)
mixed: B1 mixed with T27U
modifications: 2'-OMe (M), 2'-F (F), PS (S) as marked; uppercase DNA [2'-OMe: 1,2,3,4,7,8,10,11,13,14,19,21,22,23,24,25,26,28; 2'-F: 17,18,27; PS: 6,15]
B13 was tested, and the IC50 (IL-17 [5]) was 3.41 nM.

B14: aptamer No. 24 (mixed)
mixed: B1 mixed
modifications: 2'-OMe (M), 2'-F (F) as marked; uppercase DNA [2'-OMe: 1-4,7,8,10,13,14,23-26,29-31; 2'-F: 17]
In the case of B14, the IC50 (IL-17 [2]) is reported as 1.77 nM and the binding signal (IL-17 [3]) is reported as 15.2 % IL-17/IL-17R binding remaining.

B15: aptamer No. 41 (mixed)
mixed: B1 mixed
modifications: g(M)g(M)g(M)u(M)Agc(M)c(M)Gg(M)agg(M)a(M)gTc(F)agTaau(M)c(M)g(M)g(M)Ta(M)c(M)c(M)c(M)
B15 gave an IC50 (IL-17 (IL-17A) [1]) of 0.4 nM.

B16: aptamer No. 3 (mixed)
RNA: B4 RNA with G21A
modifications: 2'-OMe (M), 2'-F (F) as marked; uppercase DNA [1,2,3,4,5,7,8,10,11,13,14,16,17,18,20,21,22,23,24,25,26,27]
For B16, the IC50 (IL-17 [2]) was 2.08 nM and the binding signal (IL-17 [3]) was 25.3 % IL-17/IL-17R binding remaining.

B17: aptamer No. 29 (mixed)
mixed: B1 mixed
modifications: g(M)g(M)g(M)u(M)Agc(M)c(M)Gg(M)Agg(M)a(M)gTc(F)agTa(M)a(M)u(M)c(M)g(M)g(M)Ta(M)c(M)c(M)c(M)
In the case of B17, the IC50 (IL-17 (IL-17A) [1]) is reported as 2.53 nM.

GGGUAGCCGGAGGAGTCAGTAAUCGGTACCC (mixed, g(M)g(M)g(M)u(M)Agc(M)c(M)gg(M)Agg(M)a(M)gTc(F)agTa(M)Au(M)c(M)g(M)g(M)TACCC) [aptamer No. 33] was tested, and the IC50 (IL-17 (IL-17A) [1]) was 4.31 nM.

B18: aptamer No. 4 (mixed)
RNA: B4 RNA with G21A
modifications: 2'-OMe (M), 2'-F (F), PS (S) as marked; uppercase DNA [1,2,3,4,6,7,8,10,11,13,14,16,17,18,20,21,22,23,24,25,26,27,28]
In the case of B18, the IC50 (IL-17 [2]) is reported as 2.78 nM and the binding signal (IL-17 [3]) is reported as 26.8 % IL-17/IL-17R binding remaining.

With GGGUAGCCGGAGGAGTCAGTAAUCGGUACCC (mixed, g(M)g(M)g(M)u(M)Agc(M)c(M)Gg(M)agg(M)a(M)gTc(F)agTaau(M)c(M)g(M)g(M)u(F)a(M)CCC) [aptamer No. 48] the IC50 (IL-17 (IL-17A) [1]) was 0.3 nM.

B19: aptamer No. 50 (ssRNA)
RNA: GGUCUAGCCGGAGGAGUCAGUAAUCGGUAGACC
modifications: 2'-F all U and C except none: ggu(F)c(F)u(F)agc(F)c(F)ggaggagu(F)c(F)agu(F)aau(F)c(F)ggu(F)agac(F)c(F)
B19 was tested, and the IC50 (IL-17 [6]) was 7.36 nM.
